The values that follow come from US10758526B2, “Combination therapies using agents that target tumor-associated stroma or tumor cells and other pathways” (BIOMED VALLEY DISCOVERIES, INC., priority 2014, dated 2020).

Data set [1] deals with T1, mTEM8-Fc (Mus musculus, UniProt Q9CZ52).
T1 construct: Fc
T1 sequence (Q9CZ52 31-319 limits assumed): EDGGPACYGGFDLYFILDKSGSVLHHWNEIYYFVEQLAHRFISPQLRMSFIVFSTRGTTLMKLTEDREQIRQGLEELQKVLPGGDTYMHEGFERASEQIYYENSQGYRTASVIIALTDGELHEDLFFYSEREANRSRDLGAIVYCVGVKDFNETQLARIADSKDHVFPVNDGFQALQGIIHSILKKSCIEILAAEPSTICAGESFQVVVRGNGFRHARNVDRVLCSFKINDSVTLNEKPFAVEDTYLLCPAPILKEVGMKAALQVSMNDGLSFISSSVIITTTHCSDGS
The experiment in a line: Biocore affinity measurement of anti-TEM8 Fabs, mTEM8-Fc. Format: binding.

The target in data set [2] is T2, hTEM8-AP (Homo sapiens, UniProt Q9H6X2).
T2 sequence (Q9H6X2 33-321 limits assumed): T1 sequence (Q9CZ52 31-319 limits assumed) with R40K, S104R, A241S
The experiment in a line: Biocore affinity measurement of anti-TEM8 Fabs, hTEM8-AP. Format: binding.

Data set [3] can be described thus: Pharmacokinetics of TEM8 antibodies in mouse, single dose. The format is in vivo. From the text: (§1) Tables 8 and 9 show pharmacokinetic properties of TEM8 antibodies according to the present invention in mouse for single dose (Table 8) and multiple dose (Table 9) treatments.
A short description of data set [4]: Pharmacokinetics of TEM8 antibodies in mouse, multiple dose. Format: in vivo.
Text: as §1

Data set [5] deals with 3T3 fibroblasts. Kind of data set: Contractility of 3T3 fibroblasts in the presence of TGFb-1. The note with it: in vitro. The format is cell-based. How it is done:
3T3 cells were cultured and contractility in the presence of TGFb-1 was measured in control or M825 exposed cells. […] Contractile forces are thought to contribute to increased cancer cell invasion.

Data set [6] deals with OVCAR3 ovarian cancer model. Kind of data set: M825 and M825-MMAE in OVCAR3 ovarian cancer model. To be noted: 0.2 mg/kg, equivalent to maximum MMAE in the 10 mg/kg ADC group. Format: in vivo, mice. The protocol:
Treatment initiated when tumor volume reached approximately 120 mm^3. M825 was given i.v. at 10 mg/kg and M825-MMAE was given i.v. at 1, 3, or 10 mg/kg, 2 times per week for 3.5 weeks. […] The 10 mg/kg ADC group was redosed on Day 56, 2 times per week.

Positions count from the first letter of the chain named. Square brackets hold non-standard residues; d marks the D form. Peptide text beside a SMILES is read from it. * marks the point of attachment. Dolaproine = CO[C@@H]([C@@H]1CCCN1)[C@@H](C)C(=O)O; Dil = CC[C@H](C)[C@H](NC)[C@@H](CC(=O)O)OC; X1 = C[C@@H](N*)[C@@H](O)c1ccccc1; NMeV = CN[C@H](C(=O)O)C(C)C

In data set [1], “M825: TEM8 monoclonal antibody (hIgG1), VH SEQ ID NO:1 and VL SEQ ID NO:2” came in with a ka of 1.7e+06 M⁻¹ s⁻¹ and a kd of 8.942e-05 s⁻¹. Also, in data set [2], the ka worked out at 3.05e+06 M⁻¹ s⁻¹ and the kd was 0.0001802 s⁻¹. In data set [3] (5 mg/kg), the AUCI was 1310.519 µg·h/mL, the AUCT is 1310.222 µg·h/mL, the CLF came to 3.82 mL/h/kg and the CMAX was 46800 ng/mL. Further, in data set [3] (5 mg/kg), the HALF amounted to 6.03 h, the KEL is 0.1149 h⁻¹, the TMAX came out at 3 h and the VZF is 0.03319 L/kg. In data set [3] (15 mg/kg), this molecule gave an AUCI of 9239.202 µg·h/mL, an AUCT of 8991.767 µg·h/mL, a CLF of 1.62 mL/h/kg and a CMAX of 144000 ng/mL. In data set [3] (15 mg/kg), the HALF was 23.77 h, the KEL was found to be 0.0292 h⁻¹, the TMAX was 3 h and the VZF was 0.05566 L/kg. In data set [4] (5 mg/kg), this molecule yielded an AUCI of 1408.345 µg·h/mL, an AUCT of 1408.201 µg·h/mL, a CLF of 3.55 mL/h/kg and a CMAX of 54300 ng/mL. Besides, in data set [4] (5 mg/kg), the HALF came to 9.10 h, the KEL amounted to 0.0762 h⁻¹, the TMAX worked out at 3 h and the VZF came out at 0.04661 L/kg. Also, in data set [4] (15 mg/kg), the AUCI was determined as 21649.446 µg·h/mL, the AUCT is 21648.879 µg·h/mL, the CLF is 0.69 mL/h/kg and the CMAX is recorded as 314000 ng/mL. In data set [4] (15 mg/kg), the HALF came to 17.05 h, the KEL is 0.0406 h⁻¹, the TMAX was determined as 3 h and the VZF was 0.01705 L/kg. In addition, the “contractility of activated 3T3 fibroblasts” value in data set [5] is recorded as “block the contractility”.
As to `CC[C@H](C)[C@@H]([C@@H](CC(=O)N1CCC[C@H]1[C@H](OC)[C@@H](C)C(=O)N[C@H](C)[C@@H](O)c1ccccc1)OC)N(C)C(=O)[C@@H](NC(=O)[C@@H](NC)C(C)C)C(C)C` [MMAE, monomethylauristatin (MMAE), reference compound] (H-[NMeV]V[Dil][Dolaproine]-X1), in data set [6], the “effect on tumor growth” value is on record as “No effect”.

B1: M863: TEM8 monoclonal antibody (hIgG1), VH SEQ ID NO:7 and VL SEQ ID NO:8 (antibody, V domains shown)
VH: EVQLVETGAEVKKPGASVKVSCKASGYTFTGYYMHWVRQAPGQGLEWMGWINPTSGSTNYAQKFQGRVTMTRDTSISTAYMELSGLRSDDTAVYYCVRDPGSPKWLAFDPWGQGTLVTVSS
VL: DIQLTQSPSSLSASVGDRVTITCRASRAISRYLNWYQQKPGKAPKLLIYAASSLQSGVSSRFSGSGSGTEFTLTISSLQPEDFATYFCQQTYSPPITFGQGTRLEIKR
modifications: TEM863 mAb VH; TEM863 mAb VL
For B1, in data set [3] (5 mg/kg), the AUCI is 1330.847 µg·h/mL, the AUCT turned out to be 1330.742 µg·h/mL, the CLF turned out to be 3.76 mL/h/kg and the CMAX is 51300 ng/mL. In data set [3] (5 mg/kg), this molecule yielded an HALF of 8.59 h, a KEL of 0.0807 h⁻¹, a TMAX of 3 h and a VZF of 0.04656 L/kg. For the same molecule, in data set [3] (15 mg/kg), the AUCT is 10721.535 µg·h/mL, the CMAX turned out to be 355000 ng/mL and the TMAX was 3 h. For the same molecule, in data set [4] (5 mg/kg), the AUCI amounted to 1425.735 µg·h/mL, the AUCT was 1425.565 µg·h/mL, the CLF amounted to 3.51 mL/h/kg and the CMAX is 58600 ng/mL. In data set [4] (5 mg/kg), this molecule yielded an HALF of 14.29 h, a KEL of 0.0485 h⁻¹, a TMAX of 3 h and a VZF of 0.07228 L/kg. Further, in data set [4] (15 mg/kg), the AUCI was determined as 7272.672 µg·h/mL, the AUCT is 7271.7 µg·h/mL, the CLF was 2.06 mL/h/kg and the CMAX is listed as 147000 ng/mL. Further, in data set [4] (15 mg/kg), the HALF was determined as 12.64 h, the KEL was 0.0549 h⁻¹, the TMAX amounted to 3 h and the VZF stood at 0.0376 L/kg.
